In article PMC5245964:
Values belong to the substance of their own block, whether it stands above or below them.

Assays:
Assay in all cases: AUC; sedimentation velocity, 42,000 rpm, 20°C, 0.3–0.5 mg/mL in buffer HST300, continuous c(s) distribution (SEDFIT)
[1] = target: 6His-Mis18β (insect-cell-expressed) (human) (UniProt O43482)
[2] = target: MBP-Mis18β (insect-cell-expressed) (human) (UniProt O43482)
[3] = target: Mis18α:Mis18β complex (insect-cell-expressed) (human) (UniProt Q9NYP9); conditions: scale: M18BP1^1–140-MBP per Mis18α:Mis18β hexamer
Chain of Mis18α:Mis18β complex (insect-cell-expressed) (human) (Q9NYP9 whole entry, chain 1 of 2): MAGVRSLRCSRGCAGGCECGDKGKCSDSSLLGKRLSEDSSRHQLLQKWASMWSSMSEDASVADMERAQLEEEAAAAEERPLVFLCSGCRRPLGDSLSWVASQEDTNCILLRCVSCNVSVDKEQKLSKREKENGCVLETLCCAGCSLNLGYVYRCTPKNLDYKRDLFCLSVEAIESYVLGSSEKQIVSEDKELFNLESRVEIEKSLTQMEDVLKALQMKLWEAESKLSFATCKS
Chain of Mis18α:Mis18β complex (insect-cell-expressed) (human) (O43482 whole entry, chain 2 of 2, further chain): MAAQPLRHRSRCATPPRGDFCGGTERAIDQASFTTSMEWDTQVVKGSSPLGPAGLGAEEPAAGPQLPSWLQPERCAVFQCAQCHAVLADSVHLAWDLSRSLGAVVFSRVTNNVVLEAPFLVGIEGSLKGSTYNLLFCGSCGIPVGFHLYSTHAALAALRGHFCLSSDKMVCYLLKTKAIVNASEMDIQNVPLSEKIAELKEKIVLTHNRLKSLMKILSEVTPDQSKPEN

[4] = target: Mis18β (insect-cell-expressed, untagged) (human) (UniProt O43482)
Chain of Mis18β (insect-cell-expressed, untagged) (human) (O43482 whole entry): as the sequence (O43482 whole entry, chain 2 of 2, further chain) above

Chain of 6His-Mis18β (insect-cell-expressed) (human) (O43482 whole entry): as the sequence (O43482 whole entry, chain 2 of 2, further chain) above
Chain of MBP-Mis18β (insect-cell-expressed) (human) (O43482 whole entry): as the sequence (O43482 whole entry, chain 2 of 2, further chain) above
Chain of 6His-Mis18α (insect-cell-expressed) (Q9NYP9 whole entry): as the sequence (Q9NYP9 whole entry, chain 1 of 2) above
Chain of MBP-Mis18α (insect-cell-expressed) (Q9NYP9 whole entry): as the sequence (Q9NYP9 whole entry, chain 1 of 2) above
Chain of Mis18α (insect-cell-expressed, 6His cleaved) (Q9NYP9 whole entry): as the sequence (Q9NYP9 whole entry, chain 1 of 2) above
Chain of M18BP1^1–140-MBP (Q6P0N0 1-140): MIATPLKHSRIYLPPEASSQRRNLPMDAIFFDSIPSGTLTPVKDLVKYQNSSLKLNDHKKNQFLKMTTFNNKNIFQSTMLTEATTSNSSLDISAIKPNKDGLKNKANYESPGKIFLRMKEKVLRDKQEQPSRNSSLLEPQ

stoichiometry N (MBP-Mis18α per complex) [1]: 4
Substance: MBP-Mis18α (insect-cell-expressed) (from UniProt Q9NYP9 1-233) (natural protein)

stoichiometry N (MBP-Mis18β per complex) [2]: 2
Substance: 6His-Mis18α (insect-cell-expressed) (from UniProt Q9NYP9 1-233) (natural protein)

stoichiometry N [3]: 2
Substance: M18BP1^1–140-MBP (from UniProt Q6P0N0 1-140) (domain or fragment)

stoichiometry N (Mis18α per Mis18β (4:2 hexamer)) [4]: 2
Substance: Mis18α (insect-cell-expressed, 6His cleaved) (from UniProt Q9NYP9 1-233) (natural protein)
